Experiments:
Assay in all cases: IEDB peptide-MHC binding, purified MHC/competitive/radioactivity; filed as Kd, often an IC50 or EC50 that approximates it; ≥ and ≤ were set here for values at or beyond the usual limits of such assays
HLA-A*02:03 = target: HLA-A*02:03
HLA-A*02:06 = target: HLA-A*02:06
HLA-A*02:02 = target: HLA-A*02:02
[1] = source organism: Vaccinia virus WR
[2] = source organism: SARS coronavirus Tor2
[3] = source organism: Dengue virus 1 Brazil/97-11/1997
[4] = source organism: Dengue virus 2 Jamaica/1409/1983
[5] = source organism: Dengue virus 4 Philippines/H241/1956
[6] = source organism: Lymphocytic choriomeningitis virus (strain Armstrong)
[7] = source organism: Dengue virus 3 Martinique/1243/1999

Sequence | Kd (HLA-A*02:03; [1]) [nM] | Kd (HLA-A*02:06; [1]) [nM] | Kd (HLA-A*02:02; [1]) [nM] | other results
AAITLVVISV | 246 | 26.8 | 501 | 
ALAEHISDSI | 0.34 | 163 | 0.198 | 
ALKAYFTAKI | 77 | 2780 | 194 | 
ALLFLMSFTI |  |  |  | Kd (HLA-A*02:03; [2]): 199 nM; Kd (HLA-A*02:06; [2]): 14.4 nM; Kd (HLA-A*02:02; [2]): 0.365 nM
CAVIPFDDI | ≥ 10000 | 1160 | 15800 | 
CIVAAVIIM | 1420 | ≥ 32600 | 14300 | 
CTNDIYCDEI | 5720 | 4760 | 2460 | 
DAKRNSKSL | ≥ 49700 | ≥ 77100 | 13700 | 
DAMIHKTYI | 1520 | 9570 | 5420 | 
DTIAHINTL | 233 | 11200 | 747 | 
DVEKEKFVAT | ≥ 54800 | ≥ 69200 | ≥ 37500 | 
DVSLSAYII | 755 | 4380 | 691 | 
EIVSHLRAST | 2810 | 12600 | 5150 | 
ELSRLRYNL | 254 | 18600 | 0.93 | 
ELTSNCTRTT | 1470 | 5720 | 14600 | 
ELWARISSSL | 324 | 9290 | 175 | 
EMKYALINLV | 283 | 9830 | 1260 | 
FIPIIYSKA | 1.81 | 94.6 | 0.555 | 
FLFLAWIMLL |  |  |  | Kd (HLA-A*02:03; [2]): 55.7 nM; Kd (HLA-A*02:06; [2]): 1010 nM; Kd (HLA-A*02:02; [2]): 18.6 nM
FLLNKEMYL |  |  |  | Kd (HLA-A*02:03; [2]): 1.13 nM; Kd (HLA-A*02:06; [2]): 1.6 nM; Kd (HLA-A*02:02; [2]): 0.329 nM

Sequence | Kd (HLA-A*02:03; [1]) [nM] | Kd (HLA-A*02:06; [1]) [nM] | Kd (HLA-A*02:02; [1]) [nM] | other results
FLTSLLILV |  |  |  | Kd (HLA-A*02:03; [2]): 12 nM; Kd (HLA-A*02:06; [2]): 3.31 nM; Kd (HLA-A*02:02; [2]): 2.17 nM
FQDGVFHTM |  |  |  | Kd (HLA-A*02:06; [3]): 13.8 nM
FVLALYSPPL | 38.4 | 212 | 2.19 | 
GLFGKGSLI |  |  |  | Kd (HLA-A*02:03; source organism: Dengue virus 1 Nauru/West Pac/1974): 13 nM
GLFKTNTGTI |  |  |  | Kd (HLA-A*02:03; [4]): 45.8 nM
GLILFVLAL | 452 | 7800 | 129 | 
GLSSRATWA |  |  |  | Kd (HLA-A*02:03; [5]): 36.9 nM
GMVTLYLGV |  |  |  | Kd (HLA-A*02:03; [3]): 12.4 nM
HNASDFYGL |  |  |  | Kd (HLA-A*02:03; [6]): ≥ 78100 nM; Kd (HLA-A*02:06; [6]): ≥ 21700 nM; Kd (HLA-A*02:02; [6]): 6510 nM
IAMLKSKNI | 846 | 10600 | ≥ 37700 | 
IAVSVYGAIT | 9240 | 14400 | 7890 | 
ILSLETVKM | 11.8 | 280 | 4.77 | 
IMAFILGII | 29.8 | 175 | 17 | 
IMKDGRVLVV |  |  |  | Kd (HLA-A*02:03; source organism: Dengue virus 2 16681-PDK53): 6.09 nM
ITMTTVYHI |  |  |  | Kd (HLA-A*02:03; [2]): 7.21 nM; Kd (HLA-A*02:06; [2]): 2.31 nM; Kd (HLA-A*02:02; [2]): 19.2 nM
IVNCLSLSNL | 128 | 1280 | 338 | 
IVPEFAKQYV | 18.3 | 15 | 10.3 | 
KLFKRERDAI | 120 | 14200 | 92.5 | 
KLYGYASLT | 21.5 | 1990 | 75.8 | 
KQIANELNYI |  |  |  | Kd (HLA-A*02:06; [7]): 32.5 nM

Sequence | Kd (HLA-A*02:03; [1]) [nM] | Kd (HLA-A*02:06; [1]) [nM] | Kd (HLA-A*02:02; [1]) [nM] | other results
KTLTGEIGAV |  |  |  | Kd (HLA-A*02:06; [5]): 30.7 nM
LAISAVYFKA | 363 | 659 | 1430 | 
LLLSICLGSL |  |  |  | Kd (HLA-A*02:03; [2]): 104 nM; Kd (HLA-A*02:06; [2]): 258 nM; Kd (HLA-A*02:02; [2]): 20.1 nM
LLMLVTPSMT |  |  |  | Kd (HLA-A*02:03; [7]): 169 nM
LQDIVNEHDI | ≥ 38200 | 10900 | 7630 | 
LQWDDNIPEL | 712 | 34.4 | 180 | 
LQWIASAIV |  |  |  | Kd (HLA-A*02:06; [7]): 3.72 nM
LTHFNNNENV | 7270 | 996 | 907 | 
MAAAKTPVI | 209 | 672 | 259 | 
MAILCVPNAV |  |  |  | Kd (HLA-A*02:06; [4]): 5.35 nM
MTSTRTIILV | 920 | 217 | 1980 | 
MVTDKTAYI | 1.99 | 25.2 | 16.8 | 
NASKTINAL | 708 | 6100 | 117 | 
NISFKSINKV | 1530 | 11700 | ≥ 20300 | 
NLERETGLSA | 1660 | 15100 | 17600 | 
NVISKIYTL | 96.7 | 1.75 | 147 | 
NVTGFMEEEI | 5140 | 17700 | 10300 | 
PLNEGIMAI |  |  |  | Kd (HLA-A*02:03; [3]): 63.8 nM

— the Immune Epitope Database (IEDB)
